Patent publication US20230322927A1 (Regeneron, published 2023)

Tests used:
[1] = target: T1, human EGFR on cells (human, UniProt P00533 25-1210); test: flow cytometry titration on CASKI cells
T1 construct: whole, on cells; One molecule is used for both endogenous EGFR on human tumour cell lines and EGFR overexpressed on Ba/F3 cells; also called hEGFR; EGFR+ cells (PEO1, A375, 22RV1, CAPAN2, SW1990, H292, CASKI)

[2] = target: T1, human EGFR on cells; test: flow cytometry titration on A375 cells
Protocol: (§1) After incubation, the cells were washed twice with cold PBS containing 1% filtered FBS and a Fluorophore-conjugated anti-human secondary antibody was added to the cells and incubated for an additional 30 minutes. Live/dead dye was added to Human and Cynomolgus T cells incubations. Wells containing no antibody or secondary only were used as a control.
(§2) After incubation with EGFR expressing cells, cells were washed, re-suspended in 200 μL cold PBS containing 1% filtered FBS and analyzed by flow cytometry on a BD FACS Canto II.

[3] = target: human CD28 on cells (human, UniProt P10747 19-220); test: cell-based or functional assay
[4] = target: T1, human EGFR on cells; test: flow cytometry titration on 22RV1 cells
Protocol: as §1, §2

[5] = target: T2, hCD28.mFc (REGN2012) (human, UniProt P10747 19-152, limits assumed); test: SPR (Biacore T-200) at 25 C; hCD28.mFc captured on anti-mouse Fc, antibody injected
T2 construct: also called Human CD28-mFc; hCD28 with a C-terminal mouse Fc tag; not shown: C-terminal mouse Fc tag

[6] = target: T1, human EGFR on cells; test: cell-based or functional assay
[7] = target: T3, hEGFR(ECD).CPGG.MMH6 (REGN355) (human, UniProt P00533 25-647); test: SPR (Biacore 4000) at 25 C; antibody captured on anti-human Fc, hEGFR.mmH injected
T3 construct: Soluble extracellular domain with a myc-myc-hexahistidine tag; also called hEGFR.mmH; hEGFR.mmh
Protocol: Association was monitored for 5 minutes, and the dissociation of hEGFR.mmH in HBS-EP running buffer was monitored for 10 minutes. All of the binding kinetics experiments were performed at 25° C. Kinetic association (kₐ) and dissociation (kd) rate constants were determined by fitting the real-time sensorgrams to a 1:1 binding model using Scrubber 2.0c curve fitting software.

[8] = target: T1, human EGFR on cells; test: flow cytometry titration on PEO1 cells
Protocol: as §1, §2

[9] = target: T3, hEGFR(ECD).CPGG.MMH6 (REGN355); test: SPR (Biacore) at 25 C; antibody captured on anti-hFc, hEGFR.mmH injected
[10] = target: T2, hCD28.mFc (REGN2012); test: SPR (Biacore) at 25 C; hCD28.mFc captured on anti-mFc, antibody injected
[11] = target: T2, hCD28.mFc (REGN2012); test: SPR (Biacore) at 37 C; hCD28.mFc captured on anti-mFc, antibody injected
Protocol: SPR Kinetics Method: Kinetics binding parameters were determined via surface plasmon resonance (SPR) using a T-200 instrument and CM5 sensors (GE Healthcare). Double-referenced sensorgrams were globally fit to a 1:1 binding model using Scrubber (BioLogics Software). The dissociation rate constant (kd) was determined by fitting the change in the binding response during the dissociation phase, and the association rate constant (ka) was determined by fitting analyte binding at different concentrations. The KD was calculated from the ratio of the kd and ka. The dissociative half-life (t½) was calculated as In2/kd and converted to minutes.
CD28 Capture Method Specifics: An anti-mFc polyclonal Ab (GE) was coupled to a CM5 sensor surface using traditional EDC/NHS coupling chemistry. ˜30RUs of hCD28.mFc were captured on this surface. […] Dissociation was measured for 5 minutes. Surface was regenerated with a 40 second injection of 10 mM glycine, pH 1.5. Sensorgrams were processed and fit as described above.

[12] = target: T3, hEGFR(ECD).CPGG.MMH6 (REGN355); test: SPR (Biacore) at 37 C; antibody captured on anti-hFc, hEGFR.mmH injected
Protocol: SPR Kinetics Method: Kinetics binding parameters were determined via surface plasmon resonance (SPR) using a T-200 instrument and CM5 sensors (GE Healthcare). Double-referenced sensorgrams were globally fit to a 1:1 binding model using Scrubber (BioLogics Software). The dissociation rate constant (kd) was determined by fitting the change in the binding response during the dissociation phase, and the association rate constant (ka) was determined by fitting analyte binding at different concentrations. The KD was calculated from the ratio of the kd and ka.
A six-point, three-fold dilution series of hEGFR.mmH starting at 30 nM was injected over this surface at a flow rate of 50 uL/min for 5 minutes. Surface was regenerated with a 10 second pulse of 20 mM H3PO4. Dissociation was measured for 10 minutes. Sensorgrams were processed and fit as described above.

| Binder | EC50 [1] | EC50 [2] | IL-2 Release MAX (pg/mL), human CD3+ T cells + NCI-H292 cells, with 20 nM IsoC-1 [3] | IL-2 Release MAX (pg/mL), human CD3+ T cells + NCI-H292 cells, with 20 nM cemiplimab [3] | Proliferation MAX (CPM), human CD3+ T cells + NCI-H292 cells, with 20 nM IsoC-1 [3] | Proliferation MAX (CPM), human CD3+ T cells + NCI-H292 cells, with 20 nM cemiplimab [3] | Kd [5] | koff [5] | kon [5] | t½ [5] | EC50 [M] of increase of BaF3/hEGFR proliferation in presence of 0.5 nM hTGFβ [6] | Kd [7] | koff [7] | kon [7] | t½ [7] | EC50 [8] | Inhibition [%] of BaF3/hEGFR proliferation in presence of 0.5 nM hEGF [6] | Inhibition [%] of BaF3/hEGFR proliferation in presence of 0.5 nM hTGFβ [6] | IC50 [M] of inhibition of BaF3/hEGFR proliferation in presence of 0.5 nM hEGF [6] | IC50 [M] of inhibition of BaF3/hEGFR proliferation in presence of 0.5 nM hTGFβ [6] | also measured |
| --- | --- | --- | --- | --- | --- | --- | --- | --- | --- | --- | --- | --- | --- | --- | --- | --- | --- | --- | --- | --- | --- |
| REGN6322 (bispecific antibody, human IgG4 S228P, kappa, EGFR arm from mAb35193P2, CD28 arm from mAb14226; also called bsAb6322; EGFRxCD28) heavy 1: EVQLVESGGGLVKPGGSLRLSCTASGFSFRDAWMTWVRQVPGKGLEWVGRIRNKIDGGTTDYNTPVKDRFTISRDDSKNTLYLQMNSLKTEDTAVYYCTTDIWNYVLFYYYGLDVWGQGTTVTVSSASTKGPSVFPLAPCSRSTSESTAALGCLVKDYFPEPVTVSWNSGALTSGVHTFPAVLQSSGLYSLSSVVTVPSSSLGTKTYTCNVDHKPSNTKVDKRVESKYGPPCPPCPAPPVAGPSVFLFPPKPKDTLMISRTPEVTCVVVDVSQEDPEVQFNWYVDGVEVHNAKTKPREEQFNSTYRVVSVLTVLHQDWLNGKEYKCKVSNKGLPSSIEKTISKAKGQPREPQVYTLPPSQEEMTKNQVSLTCLVKGFYPSDIAVEWESNGQPENNYKTTPPVLDSDGSFFLYSRLTVDKSRWQEGNVFSCSVMHEALHNHYTQKSLSLSLGK heavy 2: QVQLQESGPGLVKPSETLSLTCTVSGGSISSYYWSWIRQPPGKGLEWIGYIYYSGITHYNPSLKSRVTISVDTSKIQFSLKLSSVTAADTAVYYCARWGVRRDYYYYGMDVWGQGTTVTVSSASTKGPSVFPLAPCSRSTSESTAALGCLVKDYFPEPVTVSWNSGALTSGVHTFPAVLQSSGLYSLSSVVTVPSSSLGTKTYTCNVDHKPSNTKVDKRVESKYGPPCPPCPAPPVAGPSVFLFPPKPKDTLMISRTPEVTCVVVDVSQEDPEVQFNWYVDGVEVHNAKTKPREEQFNSTYRVVSVLTVLHQDWLNGKEYKCKVSNKGLPSSIEKTISKAKGQPREPQVYTLPPSQEEMTKNQVSLTCLVKGFYPSDIAVEWESNGQPENNYKTTPPVLDSDGSFFLYSRLTVDKSRWQEGNVFSCSVMHEALHNRFTQKSLSLSPGK light: not shown | 24.4 nM | 4.64 nM | 8.02 pg/mL | 21.8 pg/mL | 1860 CPM | 2380 CPM | 10.3 nM | 0.00268 s⁻¹ | 261000 M⁻¹ s⁻¹ | 4.3 min | 3.67e-09 M | 9.38 nM | 0.00146 s⁻¹ | 156000 M⁻¹ s⁻¹ | 7.9 min | 5.77 nM | – | – | – | – | EC50 [4]: 9.58 nM |
| REGN6321 (bispecific antibody, human IgG4 S228P, kappa, also called bsAb6321; EGFRxCD28) heavy 1: EVQLVESGGGLVRPGGSLRLSCTASGFTFSTFIMFWVRQAPGKGLEYVSSISSNGGTIYYADSVKGRFTISRDNSKNTLYLQMGSLRAEDMAVYYCTRGGDFWSGYYPFDYWGQGTLVTVSSASTKGPSVFPLAPCSRSTSESTAALGCLVKDYFPEPVTVSWNSGALTSGVHTFPAVLQSSGLYSLSSVVTVPSSSLGTKTYTCNVDHKPSNTKVDKRVESKYGPPCPPCPAPPVAGPSVFLFPPKPKDTLMISRTPEVTCVVVDVSQEDPEVQFNWYVDGVEVHNAKTKPREEQFNSTYRVVSVLTVLHQDWLNGKEYKCKVSNKGLPSSIEKTISKAKGQPREPQVYTLPPSQEEMTKNQVSLTCLVKGFYPSDIAVEWESNGQPENNYKTTPPVLDSDGSFFLYSRLTVDKSRWQEGNVFSCSVMHEALHNHYTQKSLSLSLGK heavy 2: QVQLQESGPGLVKPSETLSLTCTVSGGSISSYYWSWIRQPPGKGLEWIGYIYYSGITHYNPSLKSRVTISVDTSKIQFSLKLSSVTAADTAVYYCARWGVRRDYYYYGMDVWGQGTTVTVSSASTKGPSVFPLAPCSRSTSESTAALGCLVKDYFPEPVTVSWNSGALTSGVHTFPAVLQSSGLYSLSSVVTVPSSSLGTKTYTCNVDHKPSNTKVDKRVESKYGPPCPPCPAPPVAGPSVFLFPPKPKDTLMISRTPEVTCVVVDVSQEDPEVQFNWYVDGVEVHNAKTKPREEQFNSTYRVVSVLTVLHQDWLNGKEYKCKVSNKGLPSSIEKTISKAKGQPREPQVYTLPPSQEEMTKNQVSLTCLVKGFYPSDIAVEWESNGQPENNYKTTPPVLDSDGSFFLYSRLTVDKSRWQEGNVFSCSVMHEALHNRFTQKSLSLSPGK light: not shown | 16.9 nM | 5.42 nM | – | – | – | – | 10.8 nM | 0.00281 s⁻¹ | 259000 M⁻¹ s⁻¹ | 4.1 min | – | 0.634 nM | 4.63e-05 s⁻¹ | 73000 M⁻¹ s⁻¹ | 249 min | – | – | – | – | – | – |
| REGN7075 (bispecific antibody, human IgG4 S228P, kappa, EGFR arm from mAb12999P2, CD28 arm from mAb14226; also called bsAb7075; H4sH24623D) heavy 1: QVQLQESGPGLVKPSETLSLTCTVSGDSIITFYWSWIRQPPGRGLEWIGYIYYSGITNYNPSLKSRVTISVDTSKNQVSLKLSSVTAADTAVYYCARVSEDSYFHYGMDVWGQGTTVTVSSASTKGPSVFPLAPCSRSTSESTAALGCLVKDYFPEPVTVSWNSGALTSGVHTFPAVLQSSGLYSLSSVVTVPSSSLGTKTYTCNVDHKPSNTKVDKRVESKYGPPCPPCPAPPVAGPSVFLFPPKPKDTLMISRTPEVTCVVVDVSQEDPEVQFNWYVDGVEVHNAKTKPREEQFNSTYRVVSVLTVLHQDWLNGKEYKCKVSNKGLPSSIEKTISKAKGQPREPQVYTLPPSQEEMTKNQVSLTCLVKGFYPSDIAVEWESNGQPENNYKTTPPVLDSDGSFFLYSRLTVDKSRWQEGNVFSCSVMHEALHNHYTQKSLSLSLGK heavy 2: QVQLQESGPGLVKPSETLSLTCTVSGGSISSYYWSWIRQPPGKGLEWIGYIYYSGITHYNPSLKSRVTISVDTSKIQFSLKLSSVTAADTAVYYCARWGVRRDYYYYGMDVWGQGTTVTVSSASTKGPSVFPLAPCSRSTSESTAALGCLVKDYFPEPVTVSWNSGALTSGVHTFPAVLQSSGLYSLSSVVTVPSSSLGTKTYTCNVDHKPSNTKVDKRVESKYGPPCPPCPAPPVAGPSVFLFPPKPKDTLMISRTPEVTCVVVDVSQEDPEVQFNWYVDGVEVHNAKTKPREEQFNSTYRVVSVLTVLHQDWLNGKEYKCKVSNKGLPSSIEKTISKAKGQPREPQVYTLPPSQEEMTKNQVSLTCLVKGFYPSDIAVEWESNGQPENNYKTTPPVLDSDGSFFLYSRLTVDKSRWQEGNVFSCSVMHEALHNRFTQKSLSLSPGK light: not shown | 2.05 nM | – | 12.7 pg/mL | 27.2 pg/mL | 1880 CPM | 3250 CPM | – | – | – | – | – | – | – | – | – | 1.22 nM | -6.8% | 11.2% | – | – | Kd [9]: 2.8 nM; koff [9]: 0.000433 s⁻¹; kon [9]: 154000 M⁻¹ s⁻¹; t½ [9]: 26.7 min; Proliferation EC50 [M], human CD3+ T cells + NCI-H292 cells, with 20 nM IsoC-1 [3]: 3.92e-11 M; Proliferation EC50 [M], human CD3+ T cells + NCI-H292 cells, with 20 nM cemiplimab [3]: 2.16e-11 M; Kd [10]: 10.7 nM; koff [10]: 0.00314 s⁻¹; kon [10]: 294000 M⁻¹ s⁻¹; t½ [10]: 3.7 min; Kd [11]: 51.7 nM; koff [11]: 0.0131 s⁻¹; kon [11]: 254000 M⁻¹ s⁻¹; t½ [11]: 0.9 min; Kd [12]: 0.933 nM; koff [12]: 0.000412 s⁻¹; kon [12]: 441000 M⁻¹ s⁻¹ |
| mAb35193P2 (antibody, V domains shown) VH: EVQLVESGGGLVKPGGSLRLSCTASGFSFRDAWMTWVRQVPGKGLEWVGRIRNKIDGGTTDYNTPVKDRFTISRDDSKNTLYLQMNSLKTEDTAVYYCTTDIWNYVLFYYYGLDVWGQGTTVTVSS VL: not shown | – | – | – | – | – | – | – | – | – | – | 9.14e-10 M | – | – | – | – | – | 29.6% | – | 2.55e-09 M | – | – |
| mAb13006P2 (antibody, V domains shown) VH: QVQLQESGPGLVKPSETLSLTCTVSDDSIISYYWSWIRQPPGKGLEWIGYIYYSGRTNYNPSLKSRVTISVDTSKNQVSLKLNSVIAADTAVYYCARVSEDSYYHYGMDVWGQGTTVTVSS VL: not shown | – | – | – | – | – | – | – | – | – | – | – | – | – | – | – | – | 93.2% | 97.2% | – | 6.55e-09 M | – |
| mAb12999P2 (antibody, V domains shown) VH: QVQLQESGPGLVKPSETLSLTCTVSGDSIITFYWSWIRQPPGRGLEWIGYIYYSGITNYNPSLKSRVTISVDTSKNQVSLKLSSVTAADTAVYYCARVSEDSYFHYGMDVWGQGTTVTVSS VL: not shown | – | – | – | – | – | – | – | – | – | – | – | – | – | – | – | – | 91.8% | 95.9% | 1.98e-08 M | 7.79e-09 M | – |
